Laboratory results taken from US20080038731.

How the values were obtained:
[1] = biological target: p53, P04637
[2] = biological target: T1, IkBα, P25963
T1 chain: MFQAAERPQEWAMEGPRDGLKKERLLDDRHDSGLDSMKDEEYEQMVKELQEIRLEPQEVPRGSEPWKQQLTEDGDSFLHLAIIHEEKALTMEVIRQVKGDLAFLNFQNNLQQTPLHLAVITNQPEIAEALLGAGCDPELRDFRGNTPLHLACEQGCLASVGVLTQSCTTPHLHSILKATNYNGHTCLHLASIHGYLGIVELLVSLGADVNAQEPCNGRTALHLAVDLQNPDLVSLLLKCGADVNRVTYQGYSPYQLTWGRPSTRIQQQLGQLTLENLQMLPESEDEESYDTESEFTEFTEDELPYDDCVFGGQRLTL

p53, P04637, sequence (P04637 whole entry, looked up): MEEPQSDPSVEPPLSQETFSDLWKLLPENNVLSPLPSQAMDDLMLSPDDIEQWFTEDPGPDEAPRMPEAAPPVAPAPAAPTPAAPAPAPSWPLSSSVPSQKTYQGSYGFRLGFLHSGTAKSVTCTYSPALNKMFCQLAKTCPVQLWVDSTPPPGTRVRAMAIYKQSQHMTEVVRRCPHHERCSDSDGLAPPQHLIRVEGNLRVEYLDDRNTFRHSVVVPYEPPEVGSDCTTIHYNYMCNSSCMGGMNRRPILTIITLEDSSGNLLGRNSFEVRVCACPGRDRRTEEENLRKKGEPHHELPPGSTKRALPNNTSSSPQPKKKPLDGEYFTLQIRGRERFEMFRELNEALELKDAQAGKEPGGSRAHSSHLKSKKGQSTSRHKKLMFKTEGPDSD

B1: purified topors (protein)
chain: MGSQPPLGSPLSREEGEAPPPAPASEGRRRSRRVRLRGSCRHRPSFLGCRELAASAPARPAPASSEIMASAAKEFKMDNFSPKAGTSKLQQTVPADASPDSKCPICLDRFDNVSYLDRCLHKFCFRCVQEWSKNKAECPLCKQPFDSIFHSVRAEDDFKEYVLRPSYNGSFVTPDRRFRYRTTLTRERNASVYSPSGPVNRRTTTPPDSGVLFEGLGISTRPRDVEIPQFMRQIAVRRPTTADERSLRKIQEQDIINFRRTLYRAGARVRNIEDGGRYRDISAEFFRRNPACLHRLVPWLKRELTVLFGAHGSLVNIVQHIIMSNVTRYDLESQAFVSDLRPFLLNRTEHFIHEFISFARSPFNMAAFDQHANYDCPAPSYEEGSHSDSSVITISPDEAETQELDINVATVSQAPWDDETPGPSYSSSEQVHVTMSSLLNTSDSSDEELVTGGATSQIQGVQTNDDLNNDSDDSSDNCVIVGFVKPLAERTPELVELSSDSEDLGSYEKMETVKTQEQEQSYSSGDSDVSRCSSPHSVLGKDEQINKGHCDSSTRIKSKKEEKRSTSLSSPRNLNSSVRGDRVYSPYNHRHRKRGRSRSSDSRSQSRSGHDQKNHRKHHGKKRMKSKRSRSRESSRPRGRRDKKRSRTRDSSWSRRSQTLSLSSESTSRSRSRSSDHGKRRSRSRNRDRYYLRNNYGSRYKWEYTYYSRNKDRDGYESSYRRRTLSRAHYSRQSSSPEFRVQSFSERTNARKKNNHSERKYYYYERHRSRSLSSNRSRTASTGTDRVRNEKPGGKRKYKTRHLEGTNEVAQPSREFASKAKDSHYQKSSSKLDGNYKNESDTFSDSRSSDRETKHKRRKRKTRSLSVEIVYEGKATDTTKHHKKKKKKHKKKHKKHHGDNASRSPVVITIDSDSDKDSEVKEDTECDNSGPQDPLQNEFLAPSLEPFETKDVVTIEAEFGVLDKECDIATLSNNLNNANKTVDNIPPLAASVEQTLDVREESTFVSDLENQPSNIVSLQTEPSRQLPSPRTSLMSVCLGRDCDMS
Which “sumoylation of p53 in vitro” value [1] does the source give for B1 here?
The value was “Topors also activates sumoylation of p53, but not IkBα”.

And the “sumoylation of IkBα in vitro” value [2]?
The value was “Topors also activates sumoylation of p53, but not IkBα”.
